# Laboratory results as given in the DeepSol protein solubility set.
# Test: soluble on expression in E. coli; label from the status in PepcDB or PDB records
row,Sequence,soluble on expression in E. coli
1,SLGKEVATRATNDERCKILEQRLEQGMVFTEYERILKKRLVDGECSTARLPENAERNRFQDVLPYDDARVELVPTKENNTGYINASHIKVSVSGIEWDYIATQGPLQNTCQDFWQMVWEQGIAIIAMVTAEEEGGREKSFRYWPRLGSRHNTVTYGRFKITTRFRTDSGCYATTGLKMKHLLTGQERTVWHLQYTDWPEHGCPEDLKGFLSYLEEIQSVRRHTNSTSDPQSPNPPLLVHSSAGVGRTGVVILSEIMIACLEHNEVLDIPRVLDMLRQQRMMLVQTLCQYTFVYRVLIQFLKSSRLI,soluble
2,MGEENQPNYTISQENWSLHRKGYDDQQRHQEKVQEAIKNNLPDLVTEESIVMSNGKDVVKIPIRSLDEYKIRYNYDKNKHVGQGNGDSKVGDVVARDGSGGQKQKGPGKGQGAGDAAGEDYYEAEVSILELEQAFFRELELPNLKRKEMDENRIEHVEFNDIRKTGLWGNIDKKRTMISAYKRNAMGGKASFHPIHQEDLKFRTWNEVLKPDSKAVVLAMMDTSGSMGIWEKYMARSFFFWMTRFLRTKYETVDIEFIAHHTEAKVVTEEEFFSKGESGGTICSSVYKKALELIDNKYSPDRYNIYPFHFSDGDNLTSDNARCVKLVEELMKKCNMFGYGEVNQYNRHSTLMSAYKNIKDENFRYYILKQKADVFHAMKSFFREESGEKMALEHHHHHH,soluble
3,MGSDKIHHHHHHMASIDFRNKINWHRRYRSPQGVKTEHEILRIFESDRGRIINSPAIRRLQQKTQVFPLERNAAVRTRLTHSMEVQQVGRYIAKEILSRLKEQDRLEEYGLDALTGPFESIVEMACLMHDIGNPPFGHFGEAAINDWFRQRLHPEDAESQPLTHDRCVVSSLRLQEGEENLNDIRRKVRQDICHFEGNAQGIRLVHTLMRMNLTWAQVGGILKYTRPAWWRGPVPDSHRYLMKKPGYYLSEEKYIARLRKELQLAPYSRFPLTWIMEAADDISYCVADLEDAVEKRIFSVEQLYHHLYHAWCHHEKDSLFELVVGNAWEKSRANTLSRSTEDQFFMYLRVNTLNKLVPYAAQRFIDNLPQIFAGTFNQALLEDASGFSRLLELYKNVAVEHVFSHPDVEQLELQGYRVISGLLDIYQPLLSLSLNDFRELVEKERLKRFPIESRLFQKLSTRHRLAYVEVVSKLPTDSAEYPVLEYYYRCRLIQDYISGMTDLYAWDEYRRLMAVEQ,not soluble
4,GMVTTRKPLRAAIIGLGRLGERHARHLVNKIQGVKLVAACALDSNQLEWAKNELGVETTYTNYKDMIDTENIDAIFIVAPTPFHPEMTIYAMNAGLNVFCEKPLGLDFNEVDEMAKVIKSHPNQIFQSGFMRRYDDSYRYAKKIVDNGDIGKIIYMRGYGIDPISGMESFTKFATEADSGGIFVDMNIHDIDLIRWFTGQDPVQAYGLTSNIAAPQLADIGEFETGVAQLKMSDGVIATLIGGRHAAHGNQVELEVMGSNGWVRIGEHPDLNRVTVFNDQGVVRPSLQSFGERFDTAFTDEVQDFVNNVIVGKQPEVTVDDGIKALKIAKACQQSANIGKLVDIQL,soluble
5,MTVPDAKRLKDLELENSRLKKLLAESLLDIGALKVVTRGKGEPGSGAGGQEMQAQTDISERRACQLFRLSRSVLCHQPRTSVQNTELQAQLVELARASALWLSPPAHSAAACWCADQLQADLPAILSRRLDGEAAEAPPQGRGGVRMPEPAERTELGLVDGFRLRRAQHWATDQMPDGGR,not soluble
6,MVTQNKKILIITGSFGNGHMQVTQSIVNQLNEMNLNHLSVIQHDLFMEAHPIMTSICKKWYINSFKYFRNTYKRFYYSRPNELDKCFYKYYGLNKLINLLIKEKPDLILLTFPTPVMSVLTEQFNINIPIATVMTDYRMHKNWITPYSQRYYVATKDTKDDFIEAGVPASYIKVTGIPIADKFELEHHHHHH,not soluble
7,MSETIEIDELVFSVKRSTRRRTVGVTVERDKSLVAHLPQGVALDVATRLIASKLLWVHQKLAEHGETARDDVFRIPEFVDGEGFHLLGKHYRLKLVDVPKNVTGVPSVRFEGDRILLRREQAASGGKRIEEYYTRAAHPYLNETVQRWKRIVGVEPGRFVQVMDLGYRWGSCSEDGTLNFHWRTMQLPPRIIEYVVVHELVHIKVPNHSEKFWKMIGSVMPDYESRKAWLKQKGGELLEHHHHHH,not soluble
8,MGSDKIHHHHHHMQEIFAVLPETIRQLLKKLPPSIQKDVEEIRIRVHRPLEVIVNHLPHYPEHQGCEYVVTTKDAQFLLNQLSAYSIYAFEEELKRGFITMAGGHRVGLAGKVTLEKGYVKTVRDISSFNIRVAKQKIGTAEPLISHVYQKGWLNTLLIGPPQSGKTTLLRDLARLVSVGWSRKGIPPLKVGIVDERSEIAAAVKGVPQHELGMRVDVLDGCPKAEGMMMMIRSMSPDVLIVDEIGRKEDCVAIQEALHAGVKVMTTAHGYELEEVSKRPAIRELLEIEAFDRCIELERRAKPGVVRRIRNAKAKDVGYVS,not soluble
9,MLTDPIADMLTRIRNATRVYKESTDVPASRFKEEILRILAREGFIKGYERVDVDGKPYLRVYLKYGPRRQGPDPRPEQVIHHIRRISKPGRRVYVGVKEIPRVRRGLGIAILSTSKGVLTDREARKLGVGGELICEVW,soluble
10,MSLADHIDAIKKEMTSLSSQFNSNKSELERSKQDLSSMQLQMQQQMNDSVQQDLQKAHDTSKKLDNLARTFLALITDPSQQSQLLAEFESISKNGTPQMPVMTPPMMNAVAAMQPHMMMRNPMLNAMGGASPRVSGKGGAPQNGGMNGMSMMQHMQMQAFQAQMMQAQMFQQMPMMMPGMVPGMPPGMAGLPGMMPPNNMAAAMQHFNAQMAAAASVAVSTPSRNPSTSGAASRTRTPLTTSATNSPRPTTEPTIKEEEPQTMEHDVAAAVAATTATATIKQEENSTVAVA,not soluble
11,MNKKIVMSFLAATVVTISGCASFADMAGADSATLNASAAQGFSKMTTEARQKGQLDTSSNTYRRINTVMQRMIPYANQMNQTGQPFQWQLAVIKSDTVNAYVAPGGKVVFYTGIVNKLNLSDAEIAAVMGHEMTHALEEHAKSKIGAEALTGLALNIGKAYAGDSIGQAGSAALDLGSQVGVGLPYSRNLESRADYGGLMLMAKAGYNPQAAITLWEKMNRMDGAGGPSFLSTHPSNNQRIQDMRKNLPAAMAVYNNRRLEHHHHHH,not soluble
12,MGSDKIHHHHHHMLTPIPQIQHLFATNRRSARWLQLAFLLMALYYAPFSHAACTTPPSNTVLGPYGSSVVGVNGTPQVVASGSGFRCTGSVLSLASTNTITATIQSDSNPSGTTMRMRRGTTTDYVPYSLCMDSGCGTLYNINSTYTWSRTTFLDILGLFNSTDGTMPIYIRTSIGSNVSAGTYTDTVTIKWDYRLCALGILGLCSYDEGSTTSTLNITMTITNDCQITSAPNISFGTAAFPANFAAVNNNLGVRCTLLGAYTVKLVSTHPDDANWRRMTATVGSTPYYLQYQLYRTGNIAWTETNDYSGAGTGITQNIPYTARINASQASKPEGTYKDTVTINVTIN,not soluble
13,MSLNKQDKKWRVLVVDDDADVLTNTVYTLMDLKVLGRELDITTLGSATAAIELLERERDFAVILLDVVMEKPHAGLSLVTMIRHDFNMQMSRIILRTGNPGYAPERDITLKLEIDDYILKQTAVRDRIITAVIVAIRAYDQLQRLARLKDAMQQIICCSNQLLTTDEIDQFANVCMQYVAPIFGKNAGGGLAYAGMTVNQGIVPLTVMSATSEHESLIEPLNGIGVLPPNISVTKKKMTKALEQTNSIKTDKDWYIYIKVSLGRKVVLWLNKPDGFDEIDETLGKSFANTIKACLDREGHHHHHH,soluble
14,GPGSMARNKIALIGSGMIGGTLAHLAGLKELGDVVLFDIAEGTPQGKGLDIAESSPVDGFDAKFTGANDYAAIEGADVVIVTAGVPRKPGMSRDDLLGINLKVMEQVGAGIKKYAPEAFVICITNPLDAMVWALQKFSGLPAHKVVGMAGVLDSARFRYFLSEEFNVSVEDVTVFVLGGHGDSMVPLARYSTVAGIPLPDLVKMGWTSQDKLDKIIQRTRDGGAEIVGLLKTGSAFYAPAASAIQMAESYLKDKKRVLPVAAQLSGQYGVKDMYVGVPTVIGANGVERIIEIDLDKDEKAQFDKSVASVAGLCEACIGIAPSLK,soluble
15,MKVLTVFGTRPEAIKMAPLVHALEKDPHFEAKVCVTAQHREMLDQVLTLFSIVPDYDLNIMQPGQGLTEITCRILEGLKPILADFKPDVVLVHGDTTTTIATSLAAFYQRIPVGHVEAGLRTGDLYSPWPEEANRTLTGHLAMYHFAPTENSRQNLLRENIPDERIFVTGNTVIDALIWVRDRVLTSDTLQAELAEQYPFLNANKKMILVTGHRRESFGQGFEHICQALAEIAAANQNVQIVYPVHLNPNVSEPVNRILGHVENVVLIEPQDYLPFVWLMNHAWLILTDSGGIQEEAPSLGKPVLVMRETTERPEAITAGTVRLIGTDSRRIVAEVMRLLHDENEYQTMSRAHNPYGDGQSCARILQALKSYRVSL,not soluble
16,MGKLMEIIIISGRSGAGKSVALRALEDAGYYCVDNIPLDLLPQLTDILSQSQSSVAISLDIRNIPNSAHSLKQTLSTLQKHHQIKIIFLEADRATLIRRYSDSRRLHPLSLKDLSLEAAIDEEYRYLEPLIQHANLILDTTHLSTHSLAERLREFLRGNSEKELKIIVESFGFKYGIPLDADYVFDVRFLPNPHWDPTLRPMTGLEAPVAEFLNSHTEVNEFIYLTRHYIDTWLPMLEKNNRSYLTIAIGCTGGKHRSVYIAQQLGEYFQAKGKTVKIQHKSLERNKKI,not soluble
17,MHAPLVSKDLDYISTANHDQPPRHLGSRFSAEGEFLPEPGNTVVCHLVEGSQTESAIVSTRQRFLDMPEASQLAFTPVSSLHMTVFQGVIESRRALPYWPQTLPLDTPIDAVTDYYRDRLSTFPTLPAFNMRVTGLRPVGMVMKGATAEDDSIVALWRDTFADFFGYRHPDHDTYEFHITLSYIVSWFEPECLPRWQAMLDEELEKLRVAAPVIQMRPPAFCEFKDMNHFKELVVFDKR,soluble
18,MAHHHHHHMGSKYGSGNYQLFRALYKDLCDEIRREYYTKPPPPPPATRTTGASPSLVAAEAALEVHGSAGSGANDTSSGAAKQRSMAGGAGATSSSTQGGGMTAGSEREGSTVEAAHAARETAATPPSQPEETYGDGSWSVQHRPEDNVAVFHRGAVKRGRLAAVHAWARIELKDPPRLNAVLTFADWIPIEVCVERNGIVIHFSMAANEGGMHMRNVRVYEPKSAEERAALLDPSDDGEYARKNFYYDGPCLWHLELDMLNELYDVMQDHGVTLDWIRWAASWVFYLEHVNYVRWNLGMLEELIPSSLRGPEEDFLLPVEKALLAEPVEDWLRAHSI,not soluble
19,DRQREAAQPAASQSASAMEANPTPAPDRSTSTSLFGDSDSAPRHRLNEEPAARRTSHDSEGMYTRRSVPRESYRDQRSDDFDDDLDIPDFLR,not soluble
20,MSLALLLRVRRLRLDRAERAQGRQLLRVRAAAQEHTERQAAQRDYRDWRLAEEQRLFLACQAAMLDRRRLEAWQQQVGLLREKEAGLEQDCAEAAQRLEGERERLRQCRRELLERQRQLEKFAELERHVDAERQGLRERSEEGELEEFTRHETWPCSSLEHHHHHH,not soluble
21,KTTVRVGLVQWQMRPYKTLDDVFEQVEFFVDAVSDYKSDFVLFPEYFNAPLMAKFNHLGEAQSIRGLAQYTEEVRDRFINLAISYNINIITGSMPYVKEDGGLYNVGFLVRRDGSYEMYEKVHVTPDEIKSWGLSGGKMVQTFDTDCAKIGILICYDVEFPELSRIMADQGMQILFVPFLTDTQNGYSRVRVCAQARAIENECFVVIAGSVGNLPRVHNMDIQYAQSGVFTPCDFAFPTDGKRAEATPNTEMILVSDVDLNLLNELHTYGSVRNLRDRRHDLYELKIKK,not soluble
